B1: GST-tagged mouse ZO-1(PDZ1) (residues 18–110) [mouse] / His6-tagged thioredoxin (Trx) fusion protein of mouse CLD-3 C-terminus (Trx-CLD3, residues 210–219) [mouse] (parent)
chain 1: IWEQHTVTLHRAPGFGFGIAISGGRDNPHFQSGETSIVISDVLKGGPAEGQLQENDRVAMVNGVSMDNVEHAFAVQQLRKSGKNAKITIRRKK
chain 2: GTAYDRKDYV

Variants of: B1
Experiment: SPR
Details: with His6-tagged thioredoxin (Trx) fusion protein of mouse CLD-3 C-terminus (Trx-CLD3, residues 210–219) [mouse], read off a plot
[1] = absence of phytic acid (gray bar), parent: 1.2e+03
[2] = presence of 10 mM phytic acid (InsP6) (black bar), parent: 530

response [1]	response [2]	Variant
340 RU	78 RU	chain 1 R11A
1400 RU	460 RU	chain 1 K80A
1300 RU	480 RU	chain 1 K83A
